From patent US20130195871A1 (AbbVie / Abbott, published 2013)

B1: DVD2335 (bispecific antibody)
VH: QVQLQQWGAGLLKPSETLSLTCAVYGGSFSGYYWSWIRQPPGKGLEWIGEINHSGSTNYNPSLKSRVTISVETSKNQFSLKLSSVTAADTAVYYCARDKWTWYFDLWGRGTLVTVSSASTKGPQVQLQESGPGLVKPSEILSLTCTVSGGSISSHYWSWVRQPPGKGLEWIGYIYYSGSTNYNPSLKSRVTISVDTSKNQFSLNLSSVTAADTAVYYCARIPNYYDRSGYYPGYWYFDLWGRGTLVTVSS
VL: DIEMTQSPDSLAVSLGERATINCRSSQSVLYSSSNRNYLAWYQQNPGQPPKLLIYWASTRESGVPDRFSGSGSGTDFTLTISSLQAEDVAVYYCQQYYSTPRTFGQGTKVEIKRTVAAPQAVLTQPSSLSAPPGASASLTCTLRSGFNVDSYRISWYQQKPGSPPQYLLRYKSDSDKQQGSGVPSRFSGSKDASANAGILLISGLQSEDEADYYCMIWHSSAWVFGGGTKLTVL
notes: DVD-Ig, outer AB062 / inner AB034
B2: DVD2298 (bispecific antibody)
VH: EVQLVESGGGLVQPGGSLRLSCAASGFSLTNYGVHWVRQAPGKGLEWLGVGWSGGNTDYNTPFTSRLTINKDNSKNTVYLQMNSLRAEDTAVYYCARALTWYDYEFAYWGQGTLVTVSSASTKGPEVQLVQSGGGLVKPGGSLRLSCAASGFTFSSYAMHWVRQAPGKGLEWVAVISYDGSNKYYADSVKGRFTISRDNSKNTLYLQMNSLRAEDTAVYYCARFSGWPNNYYYYGMDVWGQGTTVTVSS
VL: DILLTQSPGTLSLSPGERATLSCRASQSIYTNIHWYQQKPGQAPRLLIKYASESISGIPDRFSGSGSGTDFTLTISRLEPEDFAVYYCQQNLNWPTTFGQGTKLEIKRTVAAPDVVMTQSPLSLPVTPGEPASISCRSSQSLLHSNGFNYVDWYLQKPGQSPHLLIYFGSYRASGVPDRFSGSGSGTDFTLKISRVEAEDVGVYYCMQALQTPPWTFGQGTKVEIR
notes: DVD-Ig, outer AB400 / inner AB005
B3: DVD2302 (bispecific antibody)
VH: EVQLVESGGGLVQPGGSLRLSCAASGFSLTNYGVHWVRQAPGKGLEWLGVGWSGGNTDYNTPFTSRLTINKDNSKNTVYLQMNSLRAEDTAVYYCARALTWYDYEFAYWGQGTLVTVSSASTKGPEVQLVESGGGLVQPGGSLRLSCAASGFTFTDYTMDWVRQAPGKGLEWVADVNPNSGGSIYNQRFKGRFTLSVDRSKNTLYLQMNSLRAEDTAVYYCARNLGPSFYFDYWGQGTLVTVSS
VL: DILLTQSPGTLSLSPGERATLSCRASQSIYTNIHWYQQKPGQAPRLLIKYASESISGIPDRFSGSGSGTDFTLTISRLEPEDFAVYYCQQNLNWPTTFGQGTKLEIKRTVAAPDIQMTQSPSSLSASVGDRVTITCKASQDVSIGVAWYQQKPGKAPKLLIYSASYRYTGVPSRFSGSGSGTDFTLTISSLQPEDFATYYCQQYYIYPYTFGQGTKVEIK
notes: DVD-Ig, outer AB400 / inner AB080
B4: DVD2304 (bispecific antibody)
VH: EVQLVESGGGLVQPGGSLRLSCAASGFSLTNYGVHWVRQAPGKGLEWLGVGWSGGNTDYNTPFTSRLTINKDNSKNTVYLQMNSLRAEDTAVYYCARALTWYDYEFAYWGQGTLVTVSSASTKGPEVQLVQSGAEVKKPGSSVKVSCKASGGTFSSYAISWVRQAPGQGLEWMGGIIPIFGTANYAQKFQGRVTITADKSTSTAYMELSSLRSEDTAVYYCARAPLRFLEWSTQDHYYYYYMDVWGKGTTVTVSS
VL: DILLTQSPGTLSLSPGERATLSCRASQSIYTNIHWYQQKPGQAPRLLIKYASESISGIPDRFSGSGSGTDFTLTISRLEPEDFAVYYCQQNLNWPTTFGQGTKLEIKRTVAAPSSELTQDPAVSVALGQTVRITCQGDSLRSYYATWYQQKPGQAPILVIYGENKRPSGIPDRFSGSSSGNTASLTITGAQAEDEADYYCKSRDGSGQHLVFGGGTKLTVL
notes: DVD-Ig, outer AB400 / inner AB075
B5: DVD2306 (bispecific antibody)
VH: EVQLVESGGGLVQPGGSLRLSCAASGFSLTNYGVHWVRQAPGKGLEWLGVGWSGGNTDYNTPFTSRLTINKDNSKNTVYLQMNSLRAEDTAVYYCARALTWYDYEFAYWGQGTLVTVSSASTKGPEVQLVQSGGGLVKPGGSLRLSCAASGFTFSSFAMHWVRQAPGKGLEWISVIDTRGATYYADSVKGRFTISRDNAKNSLYLQMNSLRAEDTAVYYCARLGNFYYGMDVWGQGTTVTVSS
VL: DILLTQSPGTLSLSPGERATLSCRASQSIYTNIHWYQQKPGQAPRLLIKYASESISGIPDRFSGSGSGTDFTLTISRLEPEDFAVYYCQQNLNWPTTFGQGTKLEIKRTVAAPEIVLTQSPGTLSVSPGERATLSCRASQSIGSSLHWYQQKPGQAPRLLIKYASQSLSGIPDRFSGSGSGTDFTLTISRLEPEDFAVYYCHQSSRLPHTFGQGTKVEIK
notes: DVD-Ig, outer AB400 / inner AB077
B6: DVD2342 (bispecific antibody)
VH: QVQLQESGPGLVKPSQTLSLTCTVSGYSISSDFAWNWIRQPPGKGLEWMGYISYSGNTRYQPSLKSRITISRDTSKNQFFLKLNSVTAADTATYYCVTAGRGFPYWGQGTLVTVSSASTKGPEVQLVESGGGLVQPGGSLRLSCAASGFTFTDYTMDWVRQAPGKGLEWVADVNPNSGGSIYNQRFKGRFTLSVDRSKNTLYLQMNSLRAEDTAVYYCARNLGPSFYFDYWGQGTLVTVSS
VL: DIQMTQSPSSMSVSVGDRVTITCHSSQDINSNIGWLQQKPGKSFKGLIYHGTNLDDGVPSRFSGSGSGTDYTLTISSLQPEDFATYYCVQYAQFPWTFGGGTKLEIKRTVAAPDIQMTQSPSSLSASVGDRVTITCKASQDVSIGVAWYQQKPGKAPKLLIYSASYRYTGVPSRFSGSGSGTDFTLTISSLQPEDFATYYCQQYYIYPYTFGQGTKVEIK
B7: DVD2346 (bispecific antibody)
VH: QVQLQESGPGLVKPSQTLSLTCTVSGYSISSDFAWNWIRQPPGKGLEWMGYISYSGNTRYQPSLKSRITISRDTSKNQFFLKLNSVTAADTATYYCVTAGRGFPYWGQGTLVTVSSASTKGPEVQLVQSGGGLVKPGGSLRLSCAASGFTFSSFAMHWVRQAPGKGLEWISVIDTRGATYYADSVKGRFTISRDNAKNSLYLQMNSLRAEDTAVYYCARLGNFYYGMDVWGQGTTVTVSS
VL: DIQMTQSPSSMSVSVGDRVTITCHSSQDINSNIGWLQQKPGKSFKGLIYHGTNLDDGVPSRFSGSGSGTDYTLTISSLQPEDFATYYCVQYAQFPWTFGGGTKLEIKRTVAAPEIVLTQSPGTLSVSPGERATLSCRASQSIGSSLHWYQQKPGQAPRLLIKYASQSLSGIPDRFSGSGSGTDFTLTISRLEPEDFAVYYCHQSSRLPHTFGQGTKVEIK
B8: DVD2317 (bispecific antibody)
VH: EVQLVESGGGLVQPGGSLRLSCAASGFTFTDYTMDWVRQAPGKGLEWVADVNPNSGGSIYNQRFKGRFTLSVDRSKNTLYLQMNSLRAEDTAVYYCARNLGPSFYFDYWGQGTLVTVSSASTKGPEVQLVQSGGGLVKPGGSLRLSCAASGFTFSSYAMHWVRQAPGKGLEWVAVISYDGSNKYYADSVKGRFTISRDNSKNTLYLQMNSLRAEDTAVYYCARFSGWPNNYYYYGMDVWGQGTTVTVSS
VL: DIQMTQSPSSLSASVGDRVTITCKASQDVSIGVAWYQQKPGKAPKLLIYSASYRYTGVPSRFSGSGSGTDFTLTISSLQPEDFATYYCQQYYIYPYTFGQGTKVEIKRTVAAPDVVMTQSPLSLPVTPGEPASISCRSSQSLLHSNGFNYVDWYLQKPGQSPHLLIYFGSYRASGVPDRFSGSGSGTDFTLKISRVEAEDVGVYYCMQALQTPPWTFGQGTKVEIR
notes: DVD-Ig, outer AB080 / inner AB005

What was measured:
[1] = molecular target: T1, Recombinant Human MSP Receptor ECD-His tag (human, UniProt Q04912 25-957); assay: SPR (Biacore), C-terminal VD;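 note: surface plasmon resonance with DVD-Ig proteins captured on an anti-IgG chip and recombinant antigen flowed over in HBS-EP buffer, Langmuir global fit, KD taken as koff/kon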
T1 construct: extracellular domain; bought reagent; also called RON

EGFR on the cell surface = molecular target: T2, EGFR on the cell surface (human, UniProt P00533 25-1210); assay: flow cytometry on cells, 2 ug/mL, N-terminal VD;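 note: cells stained for 30 to 60 min on ice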
T2 construct: whole, on cells
Procedure: Stable cell lines overexpressing a cell-surface antigen of interest or human tumor cell lines were harvested from tissue culture flasks and resuspended in phosphate buffered saline (PBS) containing 5% fetal bovine serum (PBS/FBS). Prior to staining, human tumor cells were incubated on ice with (100 μl) human IgG at 5 μg/ml in PBS/FCS. 1-5×10⁵ cells were incubated with antibody or DVD-Ig (2 μg/mL) in PBS/FBS for 30-60 minutes on ice. […] After 30 minutes incubation on ice, cells were washed twice and resuspended in PBS/FBS. Fluorescence was measured using a Becton Dickinson FACSCalibur (Becton Dickinson, San Jose, Calif.).
The geometric mean is the n root of the multiplication product of n fluorescent signals (a1×a2×a3 . . . an). With log-transformed data the geometric mean is used to normalize the weighting of the data distribution.

Binder | GEO MEAN (EGFR on the cell surface) | other results
B1 |  | Kd [1]: 39 nM; koff [1]: 0.0051 s⁻¹; kon [1]: 130000 M⁻¹ s⁻¹
B2 | 400 | 
B3 | 563 | 
B4 | 512 | 
B5 | 546 | 
B6 | 44.8 | 
B7 | 24.1 | 
B8 |  | binding result [1]: no binding (tested: 10-200 nM)
